Measurements: the supplement of paper PMC10567573
± gives the standard deviation.

Assay: protein stability index of a GFP-peptide fusion (GPS, HEK-293T) (PSI 1-6); higher = more stable
Conditions: c terminus: a fixed tail appended
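Also: 24-mer peptide tiles fused after GFP, lentivirally expressed, FACS-sorted into six equal bins by GFP/DsRed ratio, decoded by Illumina sequencing, PSI is the read-weighted mean bin number.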

Sequence | protein stability index (treatment: DMSO) | protein stability index (treatment: MLN4924 1 uM, 8 h)
KEDALLYQSKGYNDDYYEESYFTT [EMD] | 4.2 ± 0.2 | 4.21 ± 0.18
KELIIFRLVAPTEGSLEWDILEVK [WDR41] | 2.22 ± 0.24 | 2.21 ± 0.4
KEQHLWDVDLLDSKVIEILDSQTE [DLC1] | 4.79 ± 0.26 | 4.5 ± 0.18
KEQNNLKQLEFGLKEAPVQDQGYK [ZNF8] | 5.08 ± 0.2 | 5.25 ± 0.17
KERLLLSAAVPAGQTYVDAGYEVD [CHIT1] | 4.67 ± 0.15 | 4.67 ± 0.12
KESMSEADRAQKMDGESEEEQESV [EHMT1] | 5.71 ± 0.35 | 5.59 ± 0.23
KEVPVVHTETKTITYESSQVDPGT [EPB41L3] | 5.33 ± 0.42 | 5.2 ± 0.25
KFSLLNAKREETKAMESQRAYRFV [SPOPL] | 3.06 ± 0.42 | 3.13 ± 0.23
KGTENLQRAQAEVLQSVRELSRSR [FCHSD1] | 4.61 ± 0.27 | 4.41 ± 0.38
KHGFSWAVPKFMKRIKVPDYKDRS [DLC1] | 2.56 ± 0.08 | 2.94 ± 0.31
KIENGYPLHAPEAYFPYFKKHNVT [CDC14A] | 2.2 ± 0.19 | 2.32 ± 0.18
KIQDLIDDKDALVFVLIDEVESLT [TRIP13] | 2.46 ± 0.36 | 2.36 ± 0.11
KKDKDISKEKDTQNQNITLDCEGT [KMT2E] | 5.23 ± 0.26 | 5.49 ± 0.28
KKIPIISNAMLVGDKLKFLSMLLT [ACSBG2] | 2.3 ± 0.79 | 2.47 ± 0.6
KKNGLYLSLVLGNVNVTLLSKQAK [TMEM120A] | 2.51 ± 0.64 | 2.57 ± 0.35
KLDQLDQDIENALSTSSSPSGTPT [DLC1] | 5.2 ± 0.19 | 5.35 ± 0.27
KLKGAEVTYMNMTAYNKGRLQSSF [PLD5] | 2.36 ± 0.22 | 2.72 ± 0.22
KLNKPPETLITTIDSSSSWWTNWV [CYB5A] | 2.64 ± 0.23 | 2.47 ± 0.35
KLQVRLATKTEPKKLEKYLQKLSA [ELOA2] | 2.31 ± 0.41 | 2.81 ± 0.42
KLYHQSKGPGAPQYPAGTQGEQLE [SPSB2] | 4.72 ± 0.29 | 5 ± 0.32
KMNDSEGMDPERLKAFNMFVRLFV [NOL4L] | 2.08 ± 0.11 | 2.23 ± 0.26
KMRMGGRVDFEEFVELIGPKLREE [CABP4] | 3.62 ± 0.11 | 3.31 ± 0.12

Sequence | protein stability index (treatment: DMSO) | protein stability index (treatment: MLN4924 1 uM, 8 h)
KQLALDHFKKTKKMGGKDFSFRYQ [ATL3] | 2.86 ± 0.17 | 3.12 ± 0.19
KQLEFCFSRENLSKDLYLISQMDS [LARP4] | 2.4 ± 0.2 | 2.33 ± 0.28
KQTGIVFGSFLLLLFSLTQFSVVS [RTN1] | 3.08 ± 0.46 | 3.48 ± 0.38
KRAESDSRKSSIPNNKEIPSHHPT [PTPRD] | 5.151 ± 0.046 | 5.08 ± 0.078
KRLSRFDIEMSMRGDIFERIVHLQ [NLN] | 1.84 ± 0.33 | 2 ± 0.026
KSFSMANGLNARMMHGGSYSLTTS [RAB40B] | 3.1 ± 0.2 | 3.18 ± 0.2
KSGAIMSALSDTEIQREIGISNAL [PPFIA4] | 4.02 ± 0.36 | 4.13 ± 0.18
KSRLSSVSVTYCSVSQDFPGSNLN [ETS2] | 2.62 ± 0.26 | 2.64 ± 0.18
KTDFGSCLLQPPSCPNGMSAENGL [DLC1] | 3.94 ± 0.14 | 3.87 ± 0.19
KTKWTKEDGHRTSTSAVPNLFVPL [ADD1] | 3.27 ± 0.26 | 3.22 ± 0.28
KTSLLDQLTNTSGTVIGVTSCIVI [NETO1] | 3.14 ± 0.51 | 2.76 ± 0.43
KVESGAWIGYEHTSFCGQQFILER [CRYBA1] | 2.18 ± 0.26 | 2.18 ± 0.19
KVLEALKLKGAEVTYMNMTAYNKG [PLD5] | 2.18 ± 0.6 | 2.42 ± 0.39
KVLLDCGADPDSRDFDNNTPLHIA [FEM1A] | 4.02 ± 0.17 | 4.07 ± 0.15
KVVKSAQHYTETALDEIKLLKCVR [SRPK2] | 2.72 ± 0.32 | 2.68 ± 0.21
KVYTHPKWNTQTKARSYSYPHCTG [ZC2HC1C] | 2.73 ± 0.36 | 2.9 ± 0.39
KYMPHLCQDSSGEVSCQCQLHPPR | 2.76 ± 0.58 | 3.6 ± 0.9
KYVSKELAKEIRVKAEPFIKWLKE [EIF5] | 3.08 ± 0.4 | 3.07 ± 0.46
LAEMKDDSDSEKQQQIHHIKNLYA [VPS39] | 4.16 ± 0.25 | 4.35 ± 0.44
LAHMIAECKKLFQVPEEMSRCRNS [DLC1] | 2.67 ± 0.34 | 2.68 ± 0.34
LATLEGDDPSLRKTHSSPALSQGH [PSD2] | 4.44 ± 0.14 | 4.6 ± 0.16
LCATDFKFAMYPPSMIATGSVGAA [CCND2] | 2.38 ± 0.23 | 2.38 ± 0.29

Sequence | protein stability index (treatment: DMSO) | protein stability index (treatment: MLN4924 1 uM, 8 h)
LCGQAAGAASLPSELIVHIFSFLP [FBXO33] | 2.54 ± 0.72 | 2.29 ± 0.18
LCPSRAELDRWLYHLEKQTALLGG [PLEKHN1] | 2.53 ± 0.21 | 2.62 ± 0.22
LDCEGTTNKMKSPETKQRKLSPLR [KMT2E] | 5.39 ± 0.22 | 5.05 ± 0.37
LDDSTVARELAITDSEHSDAEVSC [RETREG3] | 5.52 ± 0.23 | 5.47 ± 0.24
LDITNPKAVLENALRNFACLTTGD [UFD1] | 2.65 ± 0.21 | 2.46 ± 0.19
LDPASLAWLTEEEPEPAEVTSTSQ [DDIT3] | 5.51 ± 0.17 | 5.53 ± 0.31
LDPSSGAIHVLGPIDFEESRFYEI [PCDHGC5] | 2.27 ± 0.2 | 2.25 ± 0.26
LDSGIHSGATTTAPSLSGKGNPEE [CTNNB1] | 5.64 ± 0.29 | 5.54 ± 0.21
LDSSHSPSSLSSSEGSSSSSSSSS [NFE2L1] | 5.51 ± 0.17 | 5.46 ± 0.15
LDVGATEGQDLQHISNQKMPTGPP [DRICH1] | 5.18 ± 0.094 | 5.21 ± 0.091
LDYSFGDHTSEAVRNLFGLDPSSG [PCDHGC5] | 3.55 ± 0.13 | 3.54 ± 0.38
LEAIRKQDLVELYLTNCEKLSAKS [ZER1] | 3.06 ± 0.21 | 3.11 ± 0.36
LEDAAGGDSASEEKSGSAEPFVLP [FBXO34] | 5.46 ± 0.37 | 5.34 ± 0.33
LEEEIERNKESPVFAPVYFPEELH [HMOX1] | 5.32 ± 0.43 | 5.09 ± 0.57
LEEQGATWRHRETLIIAVLVSASI [FATE1] | 2.77 ± 0.49 | 2.7 ± 0.44
LEGYRDNAYKDLAWKHGNIHLSAP [PCMTD1] | 2.99 ± 0.35 | 2.94 ± 0.21
LEPLSLPESPGGTTTLEGSPSVPC [ZNF277] | 5.22 ± 0.16 | 5.3 ± 0.14
LEQQNQVLETKWELLQQLDLNNCK [KRT71] | 4.21 ± 0.21 | 4.4 ± 0.27
LESEDWEEDNWDPELMEHTEAESE [TEX19] | 5.59 ± 0.29 | 5.53 ± 0.32
LESRFQSKSGYLRYSCESRIRSYL [DFFB] | 2.46 ± 0.12 | 2.39 ± 0.24
LETEIEALKEELLFMKKNHEEEVK [KRT18] | 5.1 ± 0.12 | 4.98 ± 0.098
